{"source": "the supplement of paper PMC9112550", "about": "“Optimization of the antimicrobial peptide Bac7 by deep mutational scanning” (BMC Biology, 2022);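 note: peptides expressed intracellularly from a pBAD plasmid library in pooled LB shake-flask culture, induced with 0.3% L-arabinose, DNA abundance read by NGS, three biological replicates, DESeq2 with apeglm shrinkage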"}
{"test_system": "Escherichia coli TOP10", "experiment": "shrunken log2 fold change of peptide-encoding DNA abundance (4.5 h post-induction vs induction); higher = less antimicrobial activity (less host growth inhibition)", "conditions": "time post-induction: 4.5 h; library: site-saturation at positions 5, 18, 19, 20"}
{"sequence": "RRIRQRPPRLPRPRPRPMSTPRP", "shrunken log2 fold change": -0.0212}
{"sequence": "RRIRWRPPRLPRPRPRPMMLPRP", "shrunken log2 fold change": 0.309}
{"sequence": "RRIRTRPPRLPRPRPRPMSWPRP", "shrunken log2 fold change": 0.0201}
{"sequence": "RRIRYRPPRLPRPRPRPQLEPRP", "shrunken log2 fold change": -0.418}
{"sequence": "RRIRPRPPRLPRPRPRPLAEPRP", "shrunken log2 fold change": 0.322}
{"sequence": "RRIRRRPPRLPRPRPRPSPNPRP", "shrunken log2 fold change": 0.396}
{"sequence": "RRIRCRPPRLPRPRPRPDWLPRP", "shrunken log2 fold change": -0.0386}
{"sequence": "RRIRDRPPRLPRPRPRPRPCPRP", "shrunken log2 fold change": 0.429}
{"sequence": "RRIRYRPPRLPRPRPRPSMEPRP", "shrunken log2 fold change": -0.408}
{"sequence": "RRIRDRPPRLPRPRPRPYPNPRP", "shrunken log2 fold change": -0.0838}
{"sequence": "RRIRYRPPRLPRPRPRPKKCPRP", "shrunken log2 fold change": -0.0883}
{"sequence": "RRIRFRPPRLPRPRPRPYVKPRP", "shrunken log2 fold change": -0.787}
{"sequence": "RRIRGRPPRLPRPRPRPQTIPRP", "shrunken log2 fold change": 0.28}
{"sequence": "RRIRMRPPRLPRPRPRPRHHPRP", "shrunken log2 fold change": 0.415}
{"sequence": "RRIRDRPPRLPRPRPRPENQPRP", "shrunken log2 fold change": 0.351}
{"sequence": "RRIRGRPPRLPRPRPRPWHSPRP", "shrunken log2 fold change": 0.0143}
{"sequence": "RRIRQRPPRLPRPRPRPGVFPRP", "shrunken log2 fold change": 0.0582}
{"sequence": "RRIRMRPPRLPRPRPRPSDPPRP", "shrunken log2 fold change": -0.0636}
{"sequence": "RRIRVRPPRLPRPRPRPRDDPRP", "shrunken log2 fold change": -0.104}
{"sequence": "RRIRFRPPRLPRPRPRPYDSPRP", "shrunken log2 fold change": -0.924}
{"sequence": "RRIRGRPPRLPRPRPRPQKPPRP", "shrunken log2 fold change": 0.0894}
{"sequence": "RRIRDRPPRLPRPRPRPFLFPRP", "shrunken log2 fold change": 0.212}
{"sequence": "RRIRIRPPRLPRPRPRPKMNPRP", "shrunken log2 fold change": -0.954}
{"sequence": "RRIRFRPPRLPRPRPRPAHMPRP", "shrunken log2 fold change": 0.129}
{"sequence": "RRIRRRPPRLPRPRPRPHQHPRP", "shrunken log2 fold change": 0.0389}
{"sequence": "RRIRQRPPRLPRPRPRPHGNPRP", "shrunken log2 fold change": 0.0941}
{"sequence": "RRIRMRPPRLPRPRPRPPDAPRP", "shrunken log2 fold change": 1.53}
{"sequence": "RRIRYRPPRLPRPRPRPNLKPRP", "shrunken log2 fold change": -0.732}
{"sequence": "RRIRKRPPRLPRPRPRPCAYPRP", "shrunken log2 fold change": -0.0475}
{"sequence": "RRIRPRPPRLPRPRPRPMRAPRP", "shrunken log2 fold change": 0.788}
{"sequence": "RRIRNRPPRLPRPRPRPYVAPRP", "shrunken log2 fold change": -0.931}
{"sequence": "RRIRFRPPRLPRPRPRPNYRPRP", "shrunken log2 fold change": 0.055}
{"sequence": "RRIRMRPPRLPRPRPRPLVQPRP", "shrunken log2 fold change": 0.199}
{"sequence": "RRIRIRPPRLPRPRPRPKQCPRP", "shrunken log2 fold change": -0.178}
{"sequence": "RRIRCRPPRLPRPRPRPSSPPRP", "shrunken log2 fold change": -0.461}
{"sequence": "RRIRSRPPRLPRPRPRPSRTPRP", "shrunken log2 fold change": 0.822}
{"sequence": "RRIRMRPPRLPRPRPRPEIDPRP", "shrunken log2 fold change": 3.19}
{"sequence": "RRIRDRPPRLPRPRPRPFMKPRP", "shrunken log2 fold change": -0.0698}
{"sequence": "RRIRCRPPRLPRPRPRPIPMPRP", "shrunken log2 fold change": -0.108}
{"sequence": "RRIRMRPPRLPRPRPRPAASPRP", "shrunken log2 fold change": 1.25}
{"sequence": "RRIRLRPPRLPRPRPRPWRYPRP", "shrunken log2 fold change": -0.268}
{"sequence": "RRIRGRPPRLPRPRPRPLCKPRP", "shrunken log2 fold change": 0.529}
{"sequence": "RRIRWRPPRLPRPRPRPPNSPRP", "shrunken log2 fold change": 0.39}
{"sequence": "RRIRQRPPRLPRPRPRPYSEPRP", "shrunken log2 fold change": 0.0294}
{"sequence": "RRIRTRPPRLPRPRPRPGMYPRP", "shrunken log2 fold change": -0.3}
{"sequence": "RRIRPRPPRLPRPRPRPPYQPRP", "shrunken log2 fold change": 0.249}
{"sequence": "RRIRARPPRLPRPRPRPSDPPRP", "shrunken log2 fold change": -0.0252}
{"sequence": "RRIRFRPPRLPRPRPRPQVDPRP", "shrunken log2 fold change": -0.412}
{"sequence": "RRIRDRPPRLPRPRPRPSAFPRP", "shrunken log2 fold change": 0.124}
{"sequence": "RRIRNRPPRLPRPRPRPFALPRP", "shrunken log2 fold change": 0.814}
{"sequence": "RRIRTRPPRLPRPRPRPEATPRP", "shrunken log2 fold change": 1.05}
{"sequence": "RRIRRRPPRLPRPRPRPSWKPRP", "shrunken log2 fold change": 0.16}
{"sequence": "RRIRLRPPRLPRPRPRPYIFPRP", "shrunken log2 fold change": -0.549}
{"sequence": "RRIRRRPPRLPRPRPRPGHLPRP", "shrunken log2 fold change": 0.067}
{"sequence": "RRIRTRPPRLPRPRPRPLKGPRP", "shrunken log2 fold change": -0.377}
{"sequence": "RRIRPRPPRLPRPRPRPVHMPRP", "shrunken log2 fold change": 0.215}
{"sequence": "RRIRVRPPRLPRPRPRPDLTPRP", "shrunken log2 fold change": -0.263}
{"sequence": "RRIRNRPPRLPRPRPRPNILPRP", "shrunken log2 fold change": -0.0518}
{"sequence": "RRIRSRPPRLPRPRPRPWMPPRP", "shrunken log2 fold change": -0.433}
{"sequence": "RRIRRRPPRLPRPRPRPHFSPRP", "shrunken log2 fold change": -0.187}
{"sequence": "RRIRIRPPRLPRPRPRPCKHPRP", "shrunken log2 fold change": -0.118}
{"sequence": "RRIRIRPPRLPRPRPRPCIAPRP", "shrunken log2 fold change": -0.0579}
{"sequence": "RRIRVRPPRLPRPRPRPSRYPRP", "shrunken log2 fold change": -0.0975}
{"sequence": "RRIRLRPPRLPRPRPRPQACPRP", "shrunken log2 fold change": 0.00768}
{"sequence": "RRIRWRPPRLPRPRPRPLYNPRP", "shrunken log2 fold change": -0.78}
{"sequence": "RRIRKRPPRLPRPRPRPNSFPRP", "shrunken log2 fold change": -0.234}
{"sequence": "RRIRHRPPRLPRPRPRPDYIPRP", "shrunken log2 fold change": -0.0135}
{"sequence": "RRIRARPPRLPRPRPRPGWSPRP", "shrunken log2 fold change": 0.57}
{"sequence": "RRIRYRPPRLPRPRPRPIHIPRP", "shrunken log2 fold change": -0.0433}
{"sequence": "RRIRDRPPRLPRPRPRPEFNPRP", "shrunken log2 fold change": 0.574}
{"sequence": "RRIRQRPPRLPRPRPRPVSGPRP", "shrunken log2 fold change": 0.179}
{"sequence": "RRIRTRPPRLPRPRPRPAKAPRP", "shrunken log2 fold change": -0.0213}
{"sequence": "RRIRARPPRLPRPRPRPCTVPRP", "shrunken log2 fold change": -0.26}
{"sequence": "RRIRTRPPRLPRPRPRPIYYPRP", "shrunken log2 fold change": -0.818}
{"sequence": "RRIRHRPPRLPRPRPRPGVWPRP", "shrunken log2 fold change": 0.178}
{"sequence": "RRIRARPPRLPRPRPRPNFKPRP", "shrunken log2 fold change": 0.0298}
{"sequence": "RRIRERPPRLPRPRPRPCMMPRP", "shrunken log2 fold change": -0.058}
{"sequence": "RRIRERPPRLPRPRPRPVYDPRP", "shrunken log2 fold change": -0.0514}
{"sequence": "RRIRPRPPRLPRPRPRPLKKPRP", "shrunken log2 fold change": 0.295}
{"sequence": "RRIRERPPRLPRPRPRPPGRPRP", "shrunken log2 fold change": 0.146}
{"sequence": "RRIRDRPPRLPRPRPRPLFGPRP", "shrunken log2 fold change": 0.341}
{"sequence": "RRIRMRPPRLPRPRPRPFHTPRP", "shrunken log2 fold change": 0.0481}
{"sequence": "RRIRPRPPRLPRPRPRPAYVPRP", "shrunken log2 fold change": -0.241}
{"sequence": "RRIRMRPPRLPRPRPRPNYRPRP", "shrunken log2 fold change": -0.133}
{"sequence": "RRIRERPPRLPRPRPRPINPPRP", "shrunken log2 fold change": -0.00597}
{"sequence": "RRIRNRPPRLPRPRPRPSVVPRP", "shrunken log2 fold change": -0.0462}
{"sequence": "RRIRTRPPRLPRPRPRPQGLPRP", "shrunken log2 fold change": -0.0814}
{"sequence": "RRIRDRPPRLPRPRPRPPMQPRP", "shrunken log2 fold change": 0.172}
{"sequence": "RRIRCRPPRLPRPRPRPRVNPRP", "shrunken log2 fold change": 0.0551}
{"sequence": "RRIRHRPPRLPRPRPRPWVLPRP", "shrunken log2 fold change": -0.776}
{"sequence": "RRIRCRPPRLPRPRPRPMFTPRP", "shrunken log2 fold change": -0.497}
{"sequence": "RRIRSRPPRLPRPRPRPGPKPRP", "shrunken log2 fold change": 1.07}
{"sequence": "RRIRDRPPRLPRPRPRPFPKPRP", "shrunken log2 fold change": -0.201}
{"sequence": "RRIRYRPPRLPRPRPRPSPIPRP", "shrunken log2 fold change": -1.06}
{"sequence": "RRIRMRPPRLPRPRPRPQACPRP", "shrunken log2 fold change": -0.12}
{"sequence": "RRIRFRPPRLPRPRPRPGKLPRP", "shrunken log2 fold change": -0.0682}
{"sequence": "RRIRDRPPRLPRPRPRPEDIPRP", "shrunken log2 fold change": 0.0238}
{"sequence": "RRIRWRPPRLPRPRPRPDPVPRP", "shrunken log2 fold change": 0.0369}
{"sequence": "RRIRVRPPRLPRPRPRPTYLPRP", "shrunken log2 fold change": 0.00624}
{"sequence": "RRIRDRPPRLPRPRPRPVWLPRP", "shrunken log2 fold change": 0.105}
{"sequence": "RRIRYRPPRLPRPRPRPLMTPRP", "shrunken log2 fold change": -0.181}
{"sequence": "RRIRYRPPRLPRPRPRPRRQPRP", "shrunken log2 fold change": -0.232}
{"sequence": "RRIRMRPPRLPRPRPRPVGEPRP", "shrunken log2 fold change": 0.141}
{"sequence": "RRIRRRPPRLPRPRPRPERIPRP", "shrunken log2 fold change": 0.0278}
{"sequence": "RRIRMRPPRLPRPRPRPLLKPRP", "shrunken log2 fold change": 2.7}
{"sequence": "RRIRIRPPRLPRPRPRPAVCPRP", "shrunken log2 fold change": -0.214}
{"sequence": "RRIRKRPPRLPRPRPRPIRGPRP", "shrunken log2 fold change": 0.0181}
{"sequence": "RRIRGRPPRLPRPRPRPIYWPRP", "shrunken log2 fold change": 0.247}
{"sequence": "RRIRARPPRLPRPRPRPEEHPRP", "shrunken log2 fold change": -0.0106}
